Reference: patent US20260103686A1, “MICROBIAL STRAIN, PROTEIN, AND METHOD FOR PRODUCING GALLIC ACID USING MICROBIAL STRAIN OR PROTEIN” (UNIVERSITY OF TSUKUBA, priority 2022, published 2026)
Residue numbers refer to the chain shown, from its start. In names and notes the source's numbering stands.

Experiments:
Assay in all cases: purified protein, by the assay type
[1] = substrate: O=C(O)c1ccc(O)c(O)c1; type: biochemical, Hylemonella gracilis; details: other: PCA substrate, 200 µM NADPH, 10 µM FAD, pH 7.9, 25° C., 340 nm
Procedure: (§1) The cell-free extracts were subjected to a HisTrap HP column (GE healthcare) which was equilibrated with an equilibration buffer (20 mM Tris-HCl buffer (pH 7.9), 20 mM imidazole), and then fractions eluted with an eluent (20 mM Tris-HCl buffer (pH 7.9), 500 mM imidazole) were collected.
The protein concentrations of the purified enzyme liquids were measured using Bio-Rad Protein Assay Dye Reagent Concentrate (Bio-Rad, USA), and the purified enzyme liquids were diluted to 1 of mg/mL with a buffer. Thus, purified enzyme liquids protocatechuic acid 5-hydroxylases, HgPobA, HyPobA, PoPobA, HgPobA-TY and PaPobA, were prepared.
Using the purified enzyme liquids of HgPobA, HgPobA-TY, PoPobA, HyPobA and PaPobA described above, a reaction kinetic analysis was conducted.

[2] = substrate: O=C(O)c1ccc(O)cc1; details: other: pHBA substrate, 200 µM NADPH, 10 µM FAD, pH 7.9, 25° C., 340 nm
[3] = substrate: O=C(O)c1ccc(O)c(O)c1; details: other: PCA substrate, 200 µM NADPH, 10 µM FAD, pH 7.9, 25° C., 340 nm
Procedure: as §1
The protein concentrations of the purified enzyme liquids were measured using Bio-Rad Protein Assay Dye Reagent Concentrate (Bio-Rad, USA), and the purified enzyme liquids were diluted to 1 of mg/mL with a buffer.

B1: Hylemonella gracilis-derived PobA (HgPobA), protocatechuic acid 5-hydroxylase, wild type, SEQ ID NO: 20 (Hylemonella gracilis ATCC 19624) (protein)
chain: MSYPTRTQVAIIGAGPSGLMLGALLHKAGIDTVVLERQSGDYVLGRIRAGVLEQVTMDLMDEIGVGARMHQEGLVHGGFDMLFQGQRHRIDMNRLTGGQNVMVYGQTEVTRDLMDARQQAGLTTIYEAANVAIHDFGSGKPRVTYEKDGKTHELQCDFIAGCDGFHGVCRDTVKKSASASAIREYEKVYNFGWLGLLSDTPPVHHELIYVNSERGFALCSQRSATRSRYYLQVPLTDKVEQWSDQAFWDELKLRLDPQAREHLVTGPSIEKSIAPLRSFVTEPLRFGRLFLAGDAGHIVPPTGAKGLNLAATDVKYLSAALTEFYQGKSEAGINHYSERCLKRIWRAERFSWWFTSLMHRFPENGEIGQKLQEAELDYIVHSETGARSVAENYVGLPLDFGA
In the case of B1, the Km [1] is reported as 0.26 mM, the kcat [1] is reported as 0.74 s⁻¹ and the kcat/Km [1] is reported as 2800 M⁻¹ s⁻¹. The Km [2] was 0.035 mM, the kcat [2] was 5.6 s⁻¹ and the kcat/Km [2] was 160000 M⁻¹ s⁻¹.

B2: Hylemonella gracilis-derived PobA (HgPobA, SEQ ID NO: 20) variant HgPobA-TY, T302A/Y393F (gene SEQ ID NO: 37) (Hylemonella gracilis ATCC 19624; T302A/Y393F) (protein)
chain: B1 chain with T302A, Y393F
B2 showed a Km [2] of 0.034 mM, a kcat [2] of 3.1 s⁻¹ and a kcat/Km [2] of 91000 M⁻¹ s⁻¹. For the same protein, the Km [3] was 0.041 mM.
